Drawing on US20250346663A1 (published 2025), this text covers Kd for two molecules.

Broadly, the Kd is the concentration at which binding is half-saturated.

Experiment [1] addresses Gen2 leptin. As to the kind of experiment: BLI; sample PP5871-021. For orientation: BLI is a label-free optical method that tracks binding on a fibre tip over time.
The target in experiment [2] is mbp_G4S_hlep(22-167)V94M (MBP-(G4S)-human leptin V94M-6His). Briefly: BLI; sample PP2054-095.

B1: human leptin receptor (Fc-tagged dimeric) (Fc fusion)
chain: FNLSYPITPWRFKLSCMPPNSTYDYFLLPAGLSKNTSNSNGHYETAVEPKFNSSGTHFSNLSKTTFHCCFRSEQDRNCSLCADNIEGKTFVSTVNSLVFQQIDANWNIQCWLKGDLKLFICYVESLFKNLFRNYNYKVHLLYVLPEVLEDSPLVPQKGSFQMVHCNCSVHECCECLVPVPTAKLNDTLLMCLKITSGGVIFQSPLMSVQPINMVKPDPPLGLHMEITDDGNLKISWSSPPLVPFPLQYQVKYSENSTTVIREADKIVSATSLLVDSILPGSSYEVQVRGKRLDGPGIWSDWSTPRVFTTQDVIYFPPKILTSVGSNVSFHCIYKKENKIVPSKEIVWWMNLAEKIPQSQYDVVSDHVSKVTFFNLNETKPRGKFTYDAVYCCNEHECHHRYAELYVIDVNINISCETDGYLTKMTCRWSTSTIQSLAESTLQLRYHRSSLYCSDIPSIHPISEPKDCYLQSDGFYECIFQPIFLLSGYTMWIRINHSLGSLDSPPTCVLPDSVVKPLPPSSVKAEITINIGLLKISWEKPVFPENNLQFQIRYGLSGKEVQWKMYEVYDAKSKSVSLPVPDLCAVYAVQVRCKRLDGLGYWSNWSNPAYTVVMDIKVPMRGPEFWRIINGDTMKKEKNVTLLWKPLMKNDSLCSVQRYVINHHTSCNGTWSEDVGNHTKFTFLWTEQAHTVTVLAINSIGASVANFNLTFSWPMSKVNIVQSLSAYPLNSSCVIVSWILSPSDYKLMYFIIEWKNLNEDGEIKWLRISSSVKKYYIHDHFIPIEKYQFSLYPIFMEGVGKPKIINSFTQDDIEKHQSD
In experiment [1], B1 displayed an equilibrium dissociation constant (Kd) of 1.41 nM.

B2: human FC-tagged dimeric leptin receptor (Fc fusion)
chain: B1 chain
In turn, B2 displayed a Kd in experiment [2] of 0.93 nM.
